B1: Ab-007 (antibody, V domains shown)
VH: EVQLVESGGGVVRPGGSLRLSCAASGFTFDDYAMSWVRQAPGKGLEWVSDINWNGGTTSYADSVKGRFTISRDNAKNSLFLQMNSLRAEDTALYYCARKGRDTVVVKGYYYFSYYMDVWGKGSTVTVSS
VL: not shown
B2: Ab-006 (antibody, V domains shown)
VH: EVQLVESGGGLVKPGGSLRLSCTASGFTFDDYDMTWVRQAPGKGLEWVSGINWNGGNTDYADSVKGRFTISRDNTKNSLYLQMNSLRAEDTALYYCARKGRDIVVVKGFYYHYYYMDVWGKGITVTVSS
VL: not shown

What was measured:
Test in all cases: SPR; antibody captured in bivalent format
[1] = target: T1, human CD180 extracellular domain (ECD) HIS-tagged protein (Creative Biomart, CD180-3900H) (human, UniProt Q99467 24-626)
T1 chain: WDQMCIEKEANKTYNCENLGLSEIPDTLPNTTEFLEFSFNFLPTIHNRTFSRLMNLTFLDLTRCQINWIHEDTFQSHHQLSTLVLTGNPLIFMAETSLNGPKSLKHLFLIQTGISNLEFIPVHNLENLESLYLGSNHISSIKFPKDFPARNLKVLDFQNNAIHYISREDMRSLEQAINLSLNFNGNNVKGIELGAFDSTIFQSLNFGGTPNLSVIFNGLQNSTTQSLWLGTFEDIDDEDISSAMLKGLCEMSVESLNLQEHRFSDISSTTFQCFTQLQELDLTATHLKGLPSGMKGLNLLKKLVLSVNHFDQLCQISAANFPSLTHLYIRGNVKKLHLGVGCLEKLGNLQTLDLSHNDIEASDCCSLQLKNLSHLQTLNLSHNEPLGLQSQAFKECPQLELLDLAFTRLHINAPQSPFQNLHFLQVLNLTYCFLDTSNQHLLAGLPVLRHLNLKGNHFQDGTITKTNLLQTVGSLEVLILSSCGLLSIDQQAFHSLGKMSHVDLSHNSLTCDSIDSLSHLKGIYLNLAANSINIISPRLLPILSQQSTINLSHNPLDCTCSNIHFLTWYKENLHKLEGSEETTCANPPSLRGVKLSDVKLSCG

[2] = target: T2, His-tagged rhesus CD180 from Creative Biomart (CD180-1598R) (rhesus, UniProt F7GX75 24-626)
T2 chain: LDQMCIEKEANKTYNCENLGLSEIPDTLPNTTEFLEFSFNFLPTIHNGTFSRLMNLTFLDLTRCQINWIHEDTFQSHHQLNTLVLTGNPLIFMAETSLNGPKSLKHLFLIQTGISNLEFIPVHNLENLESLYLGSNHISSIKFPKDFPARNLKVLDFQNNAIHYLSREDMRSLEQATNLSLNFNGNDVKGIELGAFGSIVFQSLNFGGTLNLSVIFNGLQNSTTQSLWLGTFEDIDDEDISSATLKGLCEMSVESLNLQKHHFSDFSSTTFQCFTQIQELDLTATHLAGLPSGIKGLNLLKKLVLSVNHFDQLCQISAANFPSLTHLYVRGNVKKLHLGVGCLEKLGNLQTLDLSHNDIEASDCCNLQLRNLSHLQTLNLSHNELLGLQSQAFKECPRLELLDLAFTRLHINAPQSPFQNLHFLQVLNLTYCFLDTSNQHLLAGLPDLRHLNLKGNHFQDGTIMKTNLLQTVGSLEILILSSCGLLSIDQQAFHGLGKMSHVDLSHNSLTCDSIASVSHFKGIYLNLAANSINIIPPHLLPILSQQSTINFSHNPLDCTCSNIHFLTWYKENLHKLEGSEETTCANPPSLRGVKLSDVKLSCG

[3] = target: T3, human CD180 extracellular domain (ECD) HIS-tagged protein (Sino Biological, 11370-H08H) (human, UniProt Q99467 24-626)
T3 chain: T1 chain

Row | Binder | Kd [1] [nM] | Kd [2] [nM] | Kd [3] [nM]
1 | B1 | 4.7 | 0.05 | 3.4
2 | B2 | 12 | 0.4 | 6.8

— patent US20260232824A1 (published 2026)
